Here are results for 17 molecules from US20230235013A1 (MABSOLVE, published 2023).

For this assay, the target named is T1, Histidine-tagged recombinant human FcγRI (CD64) (human, UniProt P12314 16-288).
T1 construct: bought; also called Sino Biological Cat. No. 12056-H08H
Description: SPR, culture supernatant, captured His-FcγRI.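 Also: biacore T200 SPR at 25 °C, anti-His capture, supernatants of HEK293 cells expressing IgG1 Fc variants injected 1 min, reference-subtracted response read 55 s after injection start.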
Description: Binding analysis was carried out by surface plasmon resonance at 25° C. using a Biacore® T200 instrument with Biacore® T200 control software. The running buffer (HBS-EP+) consisted of 0.01 M HEPES pH 7.4, containing 0.15 M NaCl, 3 mM EDTA, and 0.05% v/v Surfactant P20. The sample compartment was held at 4° C. during analysis.
The cell was activated by treatment with EDC/NHS for 7 min. The antibody was diluted to 5 μg/mL in 10 mM sodium acetate pH 4.5 and injected for 7 min at 5 μL/min. The flow cell was deactivated by injection of 1M ethanolamine for 7 min. This process was repeated in the absence of anti-his antibody on a separate flow cell to generate a reference surface. […] Samples of undiluted culture supernatants from HEK293 cells expressing human IgG1 antibodies comprising variant Fc regions were injected for 1 min at 30 μL/min and allowed to disassociate for 2 min. […] Therefore, regeneration between cycles was not necessary. Responses on the test flow cell (coupled with anti-His antibody) were analysed after subtraction of responses on the control flow cell (sham-coupled). The relative binding response was measured 55 sec after the beginning of sample injection. To account for any possible drift in response due to slow dissociation of the His-tagged FcγRI, the binding response was measured relative to a baseline interpolated between report points located before sample injection and at the end of dissociation.
The whole experiment was repeated three times. Due to the relatively crude nature of the samples (variable refractive index, presence of culture media and other cellular products), some sensorgrams were unsatisfactory and were eliminated from analysis. The mean and standard deviation of binding response was then calculated for each sample.

B1: anti-CD20 human IgG1 L234A/L235A/G236R (antibody)
heavy: not shown
light: QIVLSQSPAILSASPGEKVTMTCRASSSVSYIHWFQQKPGSSPKPWIYATSNLASGVPVRFSGSGSGTSYSLTISRVEAEDAATYYCQQWTSNPPTFGGGTKLEIKRTVAAPSVFIFPPSDEQLKSGTASVVCLLNNFYPREAKVQWKVDNALQSGNSQESVTEQDSKDSTYSLSSTLTLSKADYEKHKVYACEVTHQGLSSPVTKSFNRGEC
notes: also called 1-2; 2-2; copies: 2 + 2
For B1, the Mean binding response was 30.7 RU.

B2: anti-CD20 human IgG1 L234D/L235D/G236R (antibody)
heavy: QVQLQQPGAELVKPGASVKMSCKASGYTFTSYNMHWVKQTPGRGLEWIGAIYPGNGDTSYNQKFKGKATLTADKSSSTAYMQLSSLTSEDSAVYYCARSTYYGGDWYFNVWGAGTTVTVSSASTKGPSVFPLAPSSKSTSGGTAALGCLVKDYFPEPVTVSWNSGALTSGVHTFPAVLQSSGLYSLSSVVTVPSSSLGTQTYICNVNHKPSNTKVDKKVEPKSCDKTHTCPPCPAPEDDRGPSVFLFPPKPKDTLMISRTPEVTCVVVDVSHEDPEVKFNWYVDGVEVHNAKTKPREEQYNSTYRVVSVLTVLHQDWLNGKEYKCKVSNKALPAPIEKTISKAKGQPREPQVYTLPPSRDELTKNQVSLTCLVKGFYPSDIAVEWESNGQPENNYKTTPPVLDSDGSFFLYSKLTVDKSRWQQGNVFSCSVMHEALHNHYTQKSLSLSPGK
light: QIVLSQSPAILSASPGEKVTMTCRASSSVSYIHWFQQKPGSSPKPWIYATSNLASGVPVRFSGSGSGTSYSLTISRVEAEDAATYYCQQWTSNPPTFGGGTKLEIKRTVAAPSVFIFPPSDEQLKSGTASVVCLLNNFYPREAKVQWKVDNALQSGNSQESVTEQDSKDSTYSLSSTLTLSKADYEKHKVYACEVTHQGLSSPVTKSFNRGEC
notes: also called 1-18; copies: 2 + 2
As to B2, the Mean binding response amounted to 22 RU.

B3: anti-CD20 human IgG1 L234A/L235V/G236R (antibody)
heavy: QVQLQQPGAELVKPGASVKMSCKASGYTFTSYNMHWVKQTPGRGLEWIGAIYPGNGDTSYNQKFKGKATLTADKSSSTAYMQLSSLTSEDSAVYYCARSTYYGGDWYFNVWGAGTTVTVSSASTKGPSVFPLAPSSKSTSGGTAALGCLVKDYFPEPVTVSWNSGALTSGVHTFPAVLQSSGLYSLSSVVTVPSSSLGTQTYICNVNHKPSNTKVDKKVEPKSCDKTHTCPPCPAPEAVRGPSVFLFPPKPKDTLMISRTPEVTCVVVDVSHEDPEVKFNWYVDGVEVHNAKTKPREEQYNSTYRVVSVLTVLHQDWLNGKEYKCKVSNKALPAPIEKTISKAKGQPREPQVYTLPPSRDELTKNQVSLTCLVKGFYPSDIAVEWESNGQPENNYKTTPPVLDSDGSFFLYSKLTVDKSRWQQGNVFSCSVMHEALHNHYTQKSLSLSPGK
light: QIVLSQSPAILSASPGEKVTMTCRASSSVSYIHWFQQKPGSSPKPWIYATSNLASGVPVRFSGSGSGTSYSLTISRVEAEDAATYYCQQWTSNPPTFGGGTKLEIKRTVAAPSVFIFPPSDEQLKSGTASVVCLLNNFYPREAKVQWKVDNALQSGNSQESVTEQDSKDSTYSLSSTLTLSKADYEKHKVYACEVTHQGLSSPVTKSFNRGEC
notes: also called 1-16; copies: 2 + 2
On to B3, for which the Mean binding response was determined as 25.8 RU.

B4: anti-CD20 human IgG1 L234A/L235E/G236R (antibody)
heavy: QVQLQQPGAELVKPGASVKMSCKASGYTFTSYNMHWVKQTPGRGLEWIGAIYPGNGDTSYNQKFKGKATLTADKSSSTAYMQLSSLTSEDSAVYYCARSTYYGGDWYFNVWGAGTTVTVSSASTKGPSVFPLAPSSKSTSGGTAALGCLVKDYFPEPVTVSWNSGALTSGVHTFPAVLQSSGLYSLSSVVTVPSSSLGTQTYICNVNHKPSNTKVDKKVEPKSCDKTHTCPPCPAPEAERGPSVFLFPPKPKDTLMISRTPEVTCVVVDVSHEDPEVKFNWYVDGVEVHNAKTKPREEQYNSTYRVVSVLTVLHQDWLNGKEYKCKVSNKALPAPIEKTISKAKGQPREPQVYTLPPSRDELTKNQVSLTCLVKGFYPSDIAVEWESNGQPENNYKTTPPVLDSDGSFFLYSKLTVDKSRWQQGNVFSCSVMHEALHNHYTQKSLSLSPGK
light: QIVLSQSPAILSASPGEKVTMTCRASSSVSYIHWFQQKPGSSPKPWIYATSNLASGVPVRFSGSGSGTSYSLTISRVEAEDAATYYCQQWTSNPPTFGGGTKLEIKRTVAAPSVFIFPPSDEQLKSGTASVVCLLNNFYPREAKVQWKVDNALQSGNSQESVTEQDSKDSTYSLSSTLTLSKADYEKHKVYACEVTHQGLSSPVTKSFNRGEC
notes: also called 1-4; copies: 2 + 2
B4: the Mean binding response was 31.7 RU.

B5: anti-CD20 human IgG1 L234A/L235H/G236R (antibody)
heavy: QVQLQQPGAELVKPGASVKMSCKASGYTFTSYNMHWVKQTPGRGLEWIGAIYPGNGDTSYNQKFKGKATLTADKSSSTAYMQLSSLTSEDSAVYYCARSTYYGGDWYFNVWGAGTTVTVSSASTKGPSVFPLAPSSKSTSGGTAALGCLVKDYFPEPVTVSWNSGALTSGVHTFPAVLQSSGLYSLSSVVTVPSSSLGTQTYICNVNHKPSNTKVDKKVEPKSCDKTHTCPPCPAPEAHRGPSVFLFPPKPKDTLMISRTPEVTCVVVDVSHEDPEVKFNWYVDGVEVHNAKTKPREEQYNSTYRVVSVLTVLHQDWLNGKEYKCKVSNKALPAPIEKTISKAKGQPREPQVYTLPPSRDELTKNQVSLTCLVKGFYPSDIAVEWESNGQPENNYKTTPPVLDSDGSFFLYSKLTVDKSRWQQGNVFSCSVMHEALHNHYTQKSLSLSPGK
light: QIVLSQSPAILSASPGEKVTMTCRASSSVSYIHWFQQKPGSSPKPWIYATSNLASGVPVRFSGSGSGTSYSLTISRVEAEDAATYYCQQWTSNPPTFGGGTKLEIKRTVAAPSVFIFPPSDEQLKSGTASVVCLLNNFYPREAKVQWKVDNALQSGNSQESVTEQDSKDSTYSLSSTLTLSKADYEKHKVYACEVTHQGLSSPVTKSFNRGEC
notes: also called 1-6; copies: 2 + 2
On to B5, for which the Mean binding response was 23 RU.

B6: anti-CD20 human IgG1 L234A/L235I/G236R (antibody)
heavy: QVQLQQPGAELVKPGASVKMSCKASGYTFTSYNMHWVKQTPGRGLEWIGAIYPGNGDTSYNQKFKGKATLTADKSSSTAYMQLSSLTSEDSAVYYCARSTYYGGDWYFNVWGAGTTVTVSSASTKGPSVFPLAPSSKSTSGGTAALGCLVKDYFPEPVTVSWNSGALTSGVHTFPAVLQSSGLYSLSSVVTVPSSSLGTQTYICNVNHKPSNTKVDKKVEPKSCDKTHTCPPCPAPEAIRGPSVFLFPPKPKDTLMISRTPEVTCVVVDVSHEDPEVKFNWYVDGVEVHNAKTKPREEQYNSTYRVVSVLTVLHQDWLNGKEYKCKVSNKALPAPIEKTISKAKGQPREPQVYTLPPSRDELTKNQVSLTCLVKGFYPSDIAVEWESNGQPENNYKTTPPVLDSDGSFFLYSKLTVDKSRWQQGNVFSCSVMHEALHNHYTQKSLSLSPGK
light: QIVLSQSPAILSASPGEKVTMTCRASSSVSYIHWFQQKPGSSPKPWIYATSNLASGVPVRFSGSGSGTSYSLTISRVEAEDAATYYCQQWTSNPPTFGGGTKLEIKRTVAAPSVFIFPPSDEQLKSGTASVVCLLNNFYPREAKVQWKVDNALQSGNSQESVTEQDSKDSTYSLSSTLTLSKADYEKHKVYACEVTHQGLSSPVTKSFNRGEC
notes: also called 1-7; copies: 2 + 2
Consider B6, for which the Mean binding response came to 28.4 RU.

B7: anti-CD20 human IgG1 L234D/L235E/G236R (antibody)
heavy: QVQLQQPGAELVKPGASVKMSCKASGYTFTSYNMHWVKQTPGRGLEWIGAIYPGNGDTSYNQKFKGKATLTADKSSSTAYMQLSSLTSEDSAVYYCARSTYYGGDWYFNVWGAGTTVTVSSASTKGPSVFPLAPSSKSTSGGTAALGCLVKDYFPEPVTVSWNSGALTSGVHTFPAVLQSSGLYSLSSVVTVPSSSLGTQTYICNVNHKPSNTKVDKKVEPKSCDKTHTCPPCPAPEDERGPSVFLFPPKPKDTLMISRTPEVTCVVVDVSHEDPEVKFNWYVDGVEVHNAKTKPREEQYNSTYRVVSVLTVLHQDWLNGKEYKCKVSNKALPAPIEKTISKAKGQPREPQVYTLPPSRDELTKNQVSLTCLVKGFYPSDIAVEWESNGQPENNYKTTPPVLDSDGSFFLYSKLTVDKSRWQQGNVFSCSVMHEALHNHYTQKSLSLSPGK
light: QIVLSQSPAILSASPGEKVTMTCRASSSVSYIHWFQQKPGSSPKPWIYATSNLASGVPVRFSGSGSGTSYSLTISRVEAEDAATYYCQQWTSNPPTFGGGTKLEIKRTVAAPSVFIFPPSDEQLKSGTASVVCLLNNFYPREAKVQWKVDNALQSGNSQESVTEQDSKDSTYSLSSTLTLSKADYEKHKVYACEVTHQGLSSPVTKSFNRGEC
notes: also called 1-19; copies: 2 + 2
Regarding B7, the Mean binding response amounted to 22.1 RU.

B8: anti-CD20 human IgG1 L234D/L235G/G236R (antibody)
heavy: QVQLQQPGAELVKPGASVKMSCKASGYTFTSYNMHWVKQTPGRGLEWIGAIYPGNGDTSYNQKFKGKATLTADKSSSTAYMQLSSLTSEDSAVYYCARSTYYGGDWYFNVWGAGTTVTVSSASTKGPSVFPLAPSSKSTSGGTAALGCLVKDYFPEPVTVSWNSGALTSGVHTFPAVLQSSGLYSLSSVVTVPSSSLGTQTYICNVNHKPSNTKVDKKVEPKSCDKTHTCPPCPAPEDGRGPSVFLFPPKPKDTLMISRTPEVTCVVVDVSHEDPEVKFNWYVDGVEVHNAKTKPREEQYNSTYRVVSVLTVLHQDWLNGKEYKCKVSNKALPAPIEKTISKAKGQPREPQVYTLPPSRDELTKNQVSLTCLVKGFYPSDIAVEWESNGQPENNYKTTPPVLDSDGSFFLYSKLTVDKSRWQQGNVFSCSVMHEALHNHYTQKSLSLSPGK
light: QIVLSQSPAILSASPGEKVTMTCRASSSVSYIHWFQQKPGSSPKPWIYATSNLASGVPVRFSGSGSGTSYSLTISRVEAEDAATYYCQQWTSNPPTFGGGTKLEIKRTVAAPSVFIFPPSDEQLKSGTASVVCLLNNFYPREAKVQWKVDNALQSGNSQESVTEQDSKDSTYSLSSTLTLSKADYEKHKVYACEVTHQGLSSPVTKSFNRGEC
notes: also called 1-20; copies: 2 + 2
Regarding B8, the Mean binding response stood at 27.3 RU.

B9: anti-CD20 human IgG1 L234A/L235K/G236R (antibody)
heavy: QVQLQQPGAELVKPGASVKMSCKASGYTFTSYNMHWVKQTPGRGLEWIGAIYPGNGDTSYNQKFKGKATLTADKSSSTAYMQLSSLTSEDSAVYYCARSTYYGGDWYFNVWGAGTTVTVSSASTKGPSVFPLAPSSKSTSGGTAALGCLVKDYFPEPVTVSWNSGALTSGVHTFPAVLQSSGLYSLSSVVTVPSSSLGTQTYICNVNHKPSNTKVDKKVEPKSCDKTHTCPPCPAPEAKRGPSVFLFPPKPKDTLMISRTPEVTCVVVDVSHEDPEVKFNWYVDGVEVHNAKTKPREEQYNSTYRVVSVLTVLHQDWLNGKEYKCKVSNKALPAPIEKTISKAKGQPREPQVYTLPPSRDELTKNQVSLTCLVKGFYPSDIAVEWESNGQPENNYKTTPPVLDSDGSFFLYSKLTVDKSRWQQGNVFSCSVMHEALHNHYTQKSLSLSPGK
light: QIVLSQSPAILSASPGEKVTMTCRASSSVSYIHWFQQKPGSSPKPWIYATSNLASGVPVRFSGSGSGTSYSLTISRVEAEDAATYYCQQWTSNPPTFGGGTKLEIKRTVAAPSVFIFPPSDEQLKSGTASVVCLLNNFYPREAKVQWKVDNALQSGNSQESVTEQDSKDSTYSLSSTLTLSKADYEKHKVYACEVTHQGLSSPVTKSFNRGEC
notes: also called 1-8; copies: 2 + 2
With B9, the Mean binding response came to 34.2 RU.

B10: anti-CD20 human IgG1 L234A/L235M/G236R (antibody)
heavy: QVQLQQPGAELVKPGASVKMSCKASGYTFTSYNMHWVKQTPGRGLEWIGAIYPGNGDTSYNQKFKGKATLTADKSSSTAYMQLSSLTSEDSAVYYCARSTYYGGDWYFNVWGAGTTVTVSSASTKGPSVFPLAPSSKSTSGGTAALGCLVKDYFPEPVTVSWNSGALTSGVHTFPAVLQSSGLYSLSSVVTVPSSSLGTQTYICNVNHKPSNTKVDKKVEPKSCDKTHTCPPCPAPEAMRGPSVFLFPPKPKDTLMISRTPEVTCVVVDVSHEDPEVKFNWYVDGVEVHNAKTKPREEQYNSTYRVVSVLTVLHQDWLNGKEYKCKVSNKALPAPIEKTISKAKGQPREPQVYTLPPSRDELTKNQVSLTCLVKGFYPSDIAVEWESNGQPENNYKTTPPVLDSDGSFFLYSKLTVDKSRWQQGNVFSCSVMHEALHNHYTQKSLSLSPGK
light: QIVLSQSPAILSASPGEKVTMTCRASSSVSYIHWFQQKPGSSPKPWIYATSNLASGVPVRFSGSGSGTSYSLTISRVEAEDAATYYCQQWTSNPPTFGGGTKLEIKRTVAAPSVFIFPPSDEQLKSGTASVVCLLNNFYPREAKVQWKVDNALQSGNSQESVTEQDSKDSTYSLSSTLTLSKADYEKHKVYACEVTHQGLSSPVTKSFNRGEC
notes: also called 1-10; copies: 2 + 2
As to B10, the Mean binding response came out at 27.4 RU.

B11: anti-CD20 human IgG1 L234A/L235R/G236R (antibody)
heavy: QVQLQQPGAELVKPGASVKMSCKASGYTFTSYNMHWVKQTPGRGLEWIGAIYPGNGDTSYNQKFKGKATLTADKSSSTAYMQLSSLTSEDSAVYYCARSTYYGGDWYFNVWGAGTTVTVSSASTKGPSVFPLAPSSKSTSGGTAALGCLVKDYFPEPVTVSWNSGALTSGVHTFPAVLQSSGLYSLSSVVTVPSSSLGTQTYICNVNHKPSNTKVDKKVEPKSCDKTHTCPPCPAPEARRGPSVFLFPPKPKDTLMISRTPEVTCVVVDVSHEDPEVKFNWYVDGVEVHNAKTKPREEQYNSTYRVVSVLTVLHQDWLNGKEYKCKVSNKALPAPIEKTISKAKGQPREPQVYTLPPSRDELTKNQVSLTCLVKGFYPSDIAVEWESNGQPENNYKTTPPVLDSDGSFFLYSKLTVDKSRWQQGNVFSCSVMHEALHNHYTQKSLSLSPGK
light: QIVLSQSPAILSASPGEKVTMTCRASSSVSYIHWFQQKPGSSPKPWIYATSNLASGVPVRFSGSGSGTSYSLTISRVEAEDAATYYCQQWTSNPPTFGGGTKLEIKRTVAAPSVFIFPPSDEQLKSGTASVVCLLNNFYPREAKVQWKVDNALQSGNSQESVTEQDSKDSTYSLSSTLTLSKADYEKHKVYACEVTHQGLSSPVTKSFNRGEC
notes: also called 1-13; copies: 2 + 2
Consider B11, for which the Mean binding response was determined as 26.9 RU.

B12: anti-CD20 human IgG1 L234A/L235G/G236R (antibody)
heavy: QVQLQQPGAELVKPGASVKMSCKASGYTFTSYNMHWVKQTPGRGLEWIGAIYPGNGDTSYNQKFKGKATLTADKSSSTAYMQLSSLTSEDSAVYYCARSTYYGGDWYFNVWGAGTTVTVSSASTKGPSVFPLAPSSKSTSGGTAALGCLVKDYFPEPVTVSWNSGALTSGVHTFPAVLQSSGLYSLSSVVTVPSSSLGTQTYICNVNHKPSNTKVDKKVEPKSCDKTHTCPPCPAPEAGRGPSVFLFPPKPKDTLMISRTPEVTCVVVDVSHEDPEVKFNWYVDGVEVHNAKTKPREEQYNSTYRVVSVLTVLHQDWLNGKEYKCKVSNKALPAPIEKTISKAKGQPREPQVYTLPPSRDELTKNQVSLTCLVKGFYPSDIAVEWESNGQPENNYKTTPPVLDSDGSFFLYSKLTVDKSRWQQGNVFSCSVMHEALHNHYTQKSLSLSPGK
light: QIVLSQSPAILSASPGEKVTMTCRASSSVSYIHWFQQKPGSSPKPWIYATSNLASGVPVRFSGSGSGTSYSLTISRVEAEDAATYYCQQWTSNPPTFGGGTKLEIKRTVAAPSVFIFPPSDEQLKSGTASVVCLLNNFYPREAKVQWKVDNALQSGNSQESVTEQDSKDSTYSLSSTLTLSKADYEKHKVYACEVTHQGLSSPVTKSFNRGEC
notes: also called 1-5; copies: 2 + 2
On to B12, for which the Mean binding response amounted to 27.6 RU.

B13: anti-CD20 human IgG1 L234D/L235A/G236R (antibody)
heavy: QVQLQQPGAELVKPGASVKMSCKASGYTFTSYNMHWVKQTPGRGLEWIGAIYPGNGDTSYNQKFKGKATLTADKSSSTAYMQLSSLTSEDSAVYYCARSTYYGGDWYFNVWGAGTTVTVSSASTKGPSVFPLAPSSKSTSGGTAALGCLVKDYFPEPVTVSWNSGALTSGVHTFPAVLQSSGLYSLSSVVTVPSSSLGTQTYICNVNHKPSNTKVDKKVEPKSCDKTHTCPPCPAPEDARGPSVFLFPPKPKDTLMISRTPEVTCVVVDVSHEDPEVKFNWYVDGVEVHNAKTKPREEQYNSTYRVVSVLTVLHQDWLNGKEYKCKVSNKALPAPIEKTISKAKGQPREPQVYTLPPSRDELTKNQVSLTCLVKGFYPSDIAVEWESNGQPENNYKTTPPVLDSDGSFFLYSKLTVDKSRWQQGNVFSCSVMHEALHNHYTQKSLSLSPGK
light: QIVLSQSPAILSASPGEKVTMTCRASSSVSYIHWFQQKPGSSPKPWIYATSNLASGVPVRFSGSGSGTSYSLTISRVEAEDAATYYCQQWTSNPPTFGGGTKLEIKRTVAAPSVFIFPPSDEQLKSGTASVVCLLNNFYPREAKVQWKVDNALQSGNSQESVTEQDSKDSTYSLSSTLTLSKADYEKHKVYACEVTHQGLSSPVTKSFNRGEC
notes: also called 1-17; copies: 2 + 2
For the molecule B13, the Mean binding response worked out at 29.6 RU.

B14: anti-CD20 human IgG1 L234A/L235D/G236R (antibody)
heavy: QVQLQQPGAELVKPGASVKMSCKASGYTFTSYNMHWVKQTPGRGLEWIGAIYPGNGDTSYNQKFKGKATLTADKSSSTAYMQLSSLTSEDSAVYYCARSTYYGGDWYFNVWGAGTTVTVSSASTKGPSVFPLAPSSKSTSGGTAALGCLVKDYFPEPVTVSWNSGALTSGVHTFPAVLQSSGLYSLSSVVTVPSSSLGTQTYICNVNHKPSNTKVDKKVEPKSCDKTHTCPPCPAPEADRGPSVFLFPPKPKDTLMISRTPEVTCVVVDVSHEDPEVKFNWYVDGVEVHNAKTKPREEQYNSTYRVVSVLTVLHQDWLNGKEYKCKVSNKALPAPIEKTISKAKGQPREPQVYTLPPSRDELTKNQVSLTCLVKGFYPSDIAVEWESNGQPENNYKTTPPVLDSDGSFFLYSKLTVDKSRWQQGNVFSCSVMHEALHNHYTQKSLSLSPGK
light: QIVLSQSPAILSASPGEKVTMTCRASSSVSYIHWFQQKPGSSPKPWIYATSNLASGVPVRFSGSGSGTSYSLTISRVEAEDAATYYCQQWTSNPPTFGGGTKLEIKRTVAAPSVFIFPPSDEQLKSGTASVVCLLNNFYPREAKVQWKVDNALQSGNSQESVTEQDSKDSTYSLSSTLTLSKADYEKHKVYACEVTHQGLSSPVTKSFNRGEC
notes: also called 1-3; copies: 2 + 2
With B14, the Mean binding response stood at 28 RU.

B15: anti-CD20 human IgG1 L234A/G236R (antibody)
heavy: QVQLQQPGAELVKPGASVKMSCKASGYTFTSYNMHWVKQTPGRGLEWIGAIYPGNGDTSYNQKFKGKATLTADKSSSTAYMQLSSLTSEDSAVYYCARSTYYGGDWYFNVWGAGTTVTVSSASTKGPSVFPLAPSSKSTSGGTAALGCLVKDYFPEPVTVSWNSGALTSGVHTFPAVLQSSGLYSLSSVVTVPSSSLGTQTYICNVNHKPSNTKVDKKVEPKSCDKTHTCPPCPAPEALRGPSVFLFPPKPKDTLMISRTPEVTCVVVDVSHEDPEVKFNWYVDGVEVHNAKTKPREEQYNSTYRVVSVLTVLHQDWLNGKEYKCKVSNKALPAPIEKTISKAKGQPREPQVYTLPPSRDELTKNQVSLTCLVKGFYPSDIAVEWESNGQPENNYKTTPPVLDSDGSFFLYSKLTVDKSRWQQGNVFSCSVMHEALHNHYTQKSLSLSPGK
light: QIVLSQSPAILSASPGEKVTMTCRASSSVSYIHWFQQKPGSSPKPWIYATSNLASGVPVRFSGSGSGTSYSLTISRVEAEDAATYYCQQWTSNPPTFGGGTKLEIKRTVAAPSVFIFPPSDEQLKSGTASVVCLLNNFYPREAKVQWKVDNALQSGNSQESVTEQDSKDSTYSLSSTLTLSKADYEKHKVYACEVTHQGLSSPVTKSFNRGEC
notes: also called 1-9; copies: 2 + 2
In the case of B15, the Mean binding response stood at 8 RU.

B16: anti-CD20 human IgG1 L234A/L235Q/G236R (antibody)
heavy: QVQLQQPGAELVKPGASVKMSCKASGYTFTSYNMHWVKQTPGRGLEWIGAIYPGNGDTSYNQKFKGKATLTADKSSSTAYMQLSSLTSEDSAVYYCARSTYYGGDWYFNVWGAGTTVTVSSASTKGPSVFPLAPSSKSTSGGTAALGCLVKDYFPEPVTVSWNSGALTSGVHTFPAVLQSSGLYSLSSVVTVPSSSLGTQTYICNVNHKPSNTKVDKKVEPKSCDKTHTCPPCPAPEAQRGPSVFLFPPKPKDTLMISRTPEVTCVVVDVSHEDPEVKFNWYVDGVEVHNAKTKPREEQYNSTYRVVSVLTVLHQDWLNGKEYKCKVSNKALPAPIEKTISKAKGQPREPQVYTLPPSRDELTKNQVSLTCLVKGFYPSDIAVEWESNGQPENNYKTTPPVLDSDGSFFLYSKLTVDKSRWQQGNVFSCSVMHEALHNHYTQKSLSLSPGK
light: QIVLSQSPAILSASPGEKVTMTCRASSSVSYIHWFQQKPGSSPKPWIYATSNLASGVPVRFSGSGSGTSYSLTISRVEAEDAATYYCQQWTSNPPTFGGGTKLEIKRTVAAPSVFIFPPSDEQLKSGTASVVCLLNNFYPREAKVQWKVDNALQSGNSQESVTEQDSKDSTYSLSSTLTLSKADYEKHKVYACEVTHQGLSSPVTKSFNRGEC
notes: also called 1-12; copies: 2 + 2
Turning to B16, the Mean binding response turned out to be 34.3 RU.

B17: anti-CD20 human IgG1 L234D/G236R (antibody)
heavy: not shown
light: QIVLSQSPAILSASPGEKVTMTCRASSSVSYIHWFQQKPGSSPKPWIYATSNLASGVPVRFSGSGSGTSYSLTISRVEAEDAATYYCQQWTSNPPTFGGGTKLEIKRTVAAPSVFIFPPSDEQLKSGTASVVCLLNNFYPREAKVQWKVDNALQSGNSQESVTEQDSKDSTYSLSSTLTLSKADYEKHKVYACEVTHQGLSSPVTKSFNRGEC
notes: also called 1-24; 2-8; copies: 2 + 2
B17: the Mean binding response amounted to 11.9 RU.
